Measured values taken from paper PMC4372062 (Biochemistry, 2014).

Biological target: the molecule itself
Assay: native gel or EMSA

B1: Fenna–Matthews–Olson antenna protein (FMO) (natural protein, UniProt Q46393 1-366, looked up)
chain: MALFGSNDVTTAHSDYEIVLEGGSSSWGKVKARAKVNAPPASPLLPADCDVKLNVKPLDPAKGFVRISAVFESIVDSTKNKLTIEADIANETKERRISVGEGMVSVGDFSHTFSFEGSVVNLFYYRSDAVRRNVPNPIYMQGRQFHDILMKVPLDNNDLIDTWEGTVKAIGSTGAFNDWIRDFWFIGPAFTALNEGGQRISRIEVNGLNTESGPKGPVGVSRWRFSHGGSGMVDSISRWAELFPSDKLNRPAQVEAGFRSDSQGIEVKVDGEFPGVSVDAGGGLRRILNHPLIPLVHHGMVGKFNNFNVDAQLKVVLPKGYKIRYAAPQYRSQNLEEYRWSGGAYARWVEHVCKGGVGQFEILYAQ
  stoichiometry N: 3
